IC50 data for eight molecules are collected here from patent publication US20190225650A1, “PEPTIDOMIMETIC MACROCYCLES AND USE THEREOF IN REGULATING HIF1ALPHA” (AILERON THERAPEUTICS, INC., priority 2013, published 2019).

The chains are these.
B1: SP-99 (peptide)
peptide: Ac-FIDEEVLM[S5]LVI[S5]MG-NH2
modifications: staple 9-13
SMILES: CC[C@H](C)[C@H](NC(=O)[C@H](Cc1ccccc1)NC(C)=O)C(=O)N[C@@H](CC(=O)O)C(=O)N[C@@H](CCC(=O)O)C(=O)N[C@@H](CCC(=O)O)C(=O)N[C@H](C(=O)N[C@@H](CC(C)C)C(=O)N[C@@H](CCSC)C(=O)N[C@@]1(C)CCCC=CCCC[C@@](C)(C(=O)N[C@@H](CCSC)C(=O)NCC(N)=O)NC(=O)[C@H]([C@@H](C)CC)NC(=O)[C@H](C(C)C)NC(=O)[C@H](CC(C)C)NC1=O)C(C)C
B2: SP-102 (peptide)
peptide: Ac-FIDEEVLM[S5]LVI[S5]MA-NH2
modifications: staple 9-13
SMILES: CC[C@H](C)[C@H](NC(=O)[C@H](Cc1ccccc1)NC(C)=O)C(=O)N[C@@H](CC(=O)O)C(=O)N[C@@H](CCC(=O)O)C(=O)N[C@@H](CCC(=O)O)C(=O)N[C@H](C(=O)N[C@@H](CC(C)C)C(=O)N[C@@H](CCSC)C(=O)N[C@@]1(C)CCCC=CCCC[C@@](C)(C(=O)N[C@@H](CCSC)C(=O)N[C@@H](C)C(N)=O)NC(=O)[C@H]([C@@H](C)CC)NC(=O)[C@H](C(C)C)NC(=O)[C@H](CC(C)C)NC1=O)C(C)C
B3: SP-100 (peptide)
peptide: Ac-FIDEEVLM[S5]LVI[S5]MALDRIKE-NH2
modifications: staple 9-13
SMILES: CC[C@H](C)[C@H](NC(=O)[C@H](CCCNC(=N)N)NC(=O)[C@H](CC(=O)O)NC(=O)[C@H](CC(C)C)NC(=O)[C@H](C)NC(=O)[C@H](CCSC)NC(=O)[C@]1(C)CCCC=CCCC[C@](C)(NC(=O)[C@H](CCSC)NC(=O)[C@H](CC(C)C)NC(=O)[C@@H](NC(=O)[C@H](CCC(=O)O)NC(=O)[C@H](CCC(=O)O)NC(=O)[C@H](CC(=O)O)NC(=O)[C@@H](NC(=O)[C@H](Cc2ccccc2)NC(C)=O)[C@@H](C)CC)C(C)C)C(=O)N[C@@H](CC(C)C)C(=O)N[C@@H](C(C)C)C(=O)N[C@@H]([C@@H](C)CC)C(=O)N1)C(=O)N[C@@H](CCCCN)C(=O)N[C@@H](CCC(=O)O)C(N)=O
B4: SP-103 (peptide)
peptide: Ac-FIDEEVLM[S5]LVI[S5]MAA-NH2
modifications: staple 9-13
SMILES: CC[C@H](C)[C@H](NC(=O)[C@H](Cc1ccccc1)NC(C)=O)C(=O)N[C@@H](CC(=O)O)C(=O)N[C@@H](CCC(=O)O)C(=O)N[C@@H](CCC(=O)O)C(=O)N[C@H](C(=O)N[C@@H](CC(C)C)C(=O)N[C@@H](CCSC)C(=O)N[C@@]1(C)CCCC=CCCC[C@@](C)(C(=O)N[C@@H](CCSC)C(=O)N[C@@H](C)C(=O)N[C@@H](C)C(N)=O)NC(=O)[C@H]([C@@H](C)CC)NC(=O)[C@H](C(C)C)NC(=O)[C@H](CC(C)C)NC1=O)C(C)C
B5: SP-89 (peptide)
peptide: Ac-EVLM[S5]LVI[S5]MGLDRIKELPELWL-NH2
modifications: staple 5-9
SMILES: CC[C@H](C)[C@H](NC(=O)[C@H](CCCNC(=N)N)NC(=O)[C@H](CC(=O)O)NC(=O)[C@H](CC(C)C)NC(=O)CNC(=O)[C@H](CCSC)NC(=O)[C@]1(C)CCCC=CCCC[C@](C)(NC(=O)[C@H](CCSC)NC(=O)[C@H](CC(C)C)NC(=O)[C@@H](NC(=O)[C@H](CCC(=O)O)NC(C)=O)C(C)C)C(=O)N[C@@H](CC(C)C)C(=O)N[C@@H](C(C)C)C(=O)N[C@@H]([C@@H](C)CC)C(=O)N1)C(=O)N[C@@H](CCCCN)C(=O)N[C@@H](CCC(=O)O)C(=O)N[C@@H](CC(C)C)C(=O)N1CCC[C@H]1C(=O)N[C@@H](CCC(=O)O)C(=O)N[C@@H](CC(C)C)C(=O)N[C@@H](Cc1c[nH]c2ccccc12)C(=O)N[C@@H](CC(C)C)C(N)=O
B6: SP-350 (peptide)
peptide: Ac-LLQAE[R8]LLRALD[S5]VNIDEEVL[Nle][S5]LVI[S5][Nle]-NH2
modifications: staple 6-13, 23-27
SMILES: CCCC[C@H](NC(=O)[C@]1(C)CCCC=CCCC[C@](C)(NC(=O)[C@H](CCCC)NC(=O)[C@H](CC(C)C)NC(=O)[C@@H](NC(=O)[C@H](CCC(=O)O)NC(=O)[C@H](CCC(=O)O)NC(=O)[C@H](CC(=O)O)NC(=O)[C@@H](NC(=O)[C@H](CC(N)=O)NC(=O)[C@@H](NC(=O)[C@]2(C)CCCC=CCCCCCC[C@@](C)(NC(=O)[C@H](CCC(=O)O)NC(=O)[C@H](C)NC(=O)[C@H](CCC(N)=O)NC(=O)[C@H](CC(C)C)NC(=O)[C@H](CC(C)C)NC(C)=O)C(=O)N[C@@H](CC(C)C)C(=O)N[C@@H](CC(C)C)C(=O)N[C@@H](CCCNC(=N)N)C(=O)N[C@@H](C)C(=O)N[C@@H](CC(C)C)C(=O)N[C@@H](CC(=O)O)C(=O)N2)C(C)C)[C@@H](C)CC)C(C)C)C(=O)N[C@@H](CC(C)C)C(=O)N[C@@H](C(C)C)C(=O)N[C@@H]([C@@H](C)CC)C(=O)N1)C(N)=O
B7: SP-119 (peptide)
peptide: Ac-FIDE[S5]VLM[S5]LVIE[Nle]ALDRI-NH2
modifications: staple 5-9
SMILES: CCCC[C@H](NC(=O)[C@H](CCC(=O)O)NC(=O)[C@@H](NC(=O)[C@@H](NC(=O)[C@H](CC(C)C)NC(=O)[C@]1(C)CCCC=CCCC[C@](C)(NC(=O)[C@H](CCC(=O)O)NC(=O)[C@H](CC(=O)O)NC(=O)[C@@H](NC(=O)[C@H](Cc2ccccc2)NC(C)=O)[C@@H](C)CC)C(=O)N[C@@H](C(C)C)C(=O)N[C@@H](CC(C)C)C(=O)N[C@@H](CCSC)C(=O)N1)C(C)C)[C@@H](C)CC)C(=O)N[C@@H](C)C(=O)N[C@@H](CC(C)C)C(=O)N[C@@H](CC(=O)O)C(=O)N[C@@H](CCCNC(=N)N)C(=O)N[C@H](C(N)=O)[C@@H](C)CC
B8: SP-282 (peptide)
peptide: Ac-FIDEQVLM[S5]LVI[S5]MALDRI-NH2
modifications: staple 9-13
SMILES: CC[C@H](C)[C@H](NC(=O)[C@H](CCCNC(=N)N)NC(=O)[C@H](CC(=O)O)NC(=O)[C@H](CC(C)C)NC(=O)[C@H](C)NC(=O)[C@H](CCSC)NC(=O)[C@]1(C)CCCC=CCCC[C@](C)(NC(=O)[C@H](CCSC)NC(=O)[C@H](CC(C)C)NC(=O)[C@@H](NC(=O)[C@H](CCC(N)=O)NC(=O)[C@H](CCC(=O)O)NC(=O)[C@H](CC(=O)O)NC(=O)[C@@H](NC(=O)[C@H](Cc2ccccc2)NC(C)=O)[C@@H](C)CC)C(C)C)C(=O)N[C@@H](CC(C)C)C(=O)N[C@@H](C(C)C)C(=O)N[C@@H]([C@@H](C)CC)C(=O)N1)C(N)=O

Bridge positions count the residues as written; N and C are the ends. Square brackets hold non-standard residues; d marks the D form. R8 = C=CCCCCCC[C@@](C)(N)C(=O)O; S5 = C=CCCC[C@](C)(N)C(=O)O; Nle = CCCC[C@H](N)C(=O)O

For the first assay, the target named is T1, His6-tagged p300 (AA 323-423) (UniProt Q09472 323-423).
T1 construct: range 323-423; also called p300-CH; not shown: His6 tag
T1 sequence (Q09472 323-423 limits assumed): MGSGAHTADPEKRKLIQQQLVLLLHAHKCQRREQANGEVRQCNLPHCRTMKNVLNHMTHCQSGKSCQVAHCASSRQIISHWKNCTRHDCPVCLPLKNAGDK
Description: TR-FRET HIF1a/p300 displacement; grade = IC50 >700 nM. An outline of the steps: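 Peptides competed with HIF1α C-terminal transactivation domain for His6-p300-CH (complex 300 nM final) during 1 h at RT in 20 mM HEPES pH 7.4, 150 mM NaCl, 7.5 mM CHAPS, 1 mM DTT. Anti-Flag-K (0.5 μM) and anti-His-D2 (4 nM) were added for 2 h. IC50 was derived from the TR-FRET ratio by one-site fit.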
A general note: TR-FRET usually uses a lanthanide donor and a delayed reading to cut background.
Molecule B1 had an IC50 above 700 nM.

In turn, B2 returned a half-inhibitory concentration (IC50) above 700 nM.

Consider B3, for which the IC50 was above 700 nM.

For the molecule B4, the 50% inhibitory concentration (IC50) is above 700 nM.

Another assay concerns the target T1, His6-tagged p300 (AA 323-423). Put plainly: TR-FRET HIF1a/p300 displacement; grade = IC50 <=200 nM. As to the method: The ability of peptides to displace HIF1α c-terminal trans-activation domain from p300-CH was measured by a TR FRET assay. […] The complex was diluted to 300 nM final in complete assay media and competitor peptides were added. The complete assay media contained 150 mM NaCl (Sigma +S5150 or equivalent), 20 mM HEPES pH 7.4 (Boston Bioproducts, Ashland, Mass.; #BB-2076), 7.5 mM CHAPS (Thermo #28300 or equivalent), and 1 mM DTT. Protein and peptide were incubated at room temperature for 1 hour before the addition of anti-Flag-K and anti-6×HIS-D2 (CisBio, Bedford Mass.) HTRF reconstitution buffer (50 mM Phosphate pH 7, 0.8 Potassium Flouride, BSA 0.2%)¹ to a final concentration of 0.5 μM and 4 nM respectively. The reaction continued for an additional two hours at room temperature. The reaction was read on a TECAN F500 plate reader with settings recommended by CisBio. The ratio of donor to acceptor fluorescence was calculated. The resulting data was analyzed with Graphpad Prism 5.0. IC50 values were calculated for both proteins using the One Site Fit-LogIC50 equation and presented in the column “IC₅₀ (nM) (HIF1α_p300 Displacement+CHAPS)” of Table 6. ¹ Cisbio USA, Bedford, Mass.; 61HISDLB (lot 007A), 61FG2KLB (024A), HTRF Buffer (62RB3RDF)
B5 had an IC50 of at most 200 nM.

On to B6, for which the IC50 was at most 200 nM.

In turn, B7 returned an IC50 of at most 200 nM.

In the case of B8, the IC50 was at most 200 nM.

A word on the IC50: it is the point on the concentration scale where inhibition reaches its midpoint. Lower therefore signals inhibition by little substance.
